Measured values from the supplement of paper PMC9170038.

System: MS2 coat protein
Experiment: apparent KD of MS2 coat protein; designed switch direction (-1 OFF switch, 1 ON switch): 1; higher = weaker reporter binding
Summary of the method: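 RNA switches sharing common flanks were transcribed by stalled E. coli RNA polymerase on Illumina chips. A doubling series of SNAP-549-labelled MS2 coat protein, from 0.7 or 1.5 nM to 3 µM, was applied in Tris-HCl pH 7.5 buffer with KCl, MgCl2, BSA, DTT, tRNA and Tween-20. Each step lasted 0.8–1.5 h at the bottom of the series and 10–20 min at the top. Normalised cluster fluorescence was curve-fitted, giving apparent KD as the per-design median over clusters.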

[1] = input ligand: microRNA oligo, concentration not stated
[2] = Eterna round: R95, input ligand: FMN 200 uM
[3] = Eterna round: R95, input ligand: microRNA oligo, concentration not stated
[4] = Eterna round: R95, input ligand: none

Sequence	apparent KD of MS2 coat protein (input ligand: FMN 200 uM) [nM]	apparent KD of MS2 coat protein [1] [nM]	apparent KD of MS2 coat protein (input ligand: none) [nM]	apparent KD of MS2 coat protein [2] [nM]	apparent KD of MS2 coat protein [3] [nM]	apparent KD of MS2 coat protein [4] [nM]
GGUGCGAAAUAAGCCUACAUGAGGAUCACCCAUGUAUGUAGGCAGGAUAUCGUAUGCAAAGCAUACGAGAAGGGCUGACGCACC [Mat - Same State NG 3 - JL Mod - D51] (Eterna round: R96, puzzle: Same State NG 3)	32.5	55.9	75.4			
GUAGCCGGCACUGAGGAUAUUCAUAUUUAAACAUGAGGAUCACCCAUGUAGGCCAGAAGGCCUUGGGAGAAGGCAGGUCGGCUCG [salish99_ss2_r3_081] (puzzle: Same State 2)				20.7	210	294
GCGGACUUCACAUGAGGAUCACCCAUGUUGCGGAGACGCAAUGAGGAUAUCGAUGGGUUUCCCGUCGAGAAGGCAUAAAUCCGC [JL SSNG3 3.93 mod 5] (Eterna round: R96, puzzle: Same State NG 3)	25.2	30	49.8			
UGGUAACAUGAGGAUCACCCAUGUCAAAUGAAUCGAGGAUAUGGGAAAGGAGAAGAGAAACUAGAAGGCGAAGUUG [Altered State 1-12 - Jieux - Same State 1] (puzzle: Same State 1)				202	191	148
AGCCGAGACUGAGGAUAUAGAUAUCUACAUGAGGAUCACCCAUGUAGCAACACGUGGUAGUGAUUCUAGAAGGCGGCUCGGCGC [Omei SS(NG)2 Cv6] (Eterna round: R96, puzzle: Same State NG 2)	19.2	66.2	83.7			
UUAUACUAGAGAGGAUAUGCAGAGGAUCACCCUGCAGAAGGCUCGUUAGAGAGGAUAUGCAGAGGAUCACCCUGCAGAAGGCUC [pwkr ssNG DX.23] (Eterna round: R96, puzzle: Same State NG 1)	17.2	8.62	15.2			
GGUAUCGGCGCAGGAUAUGCUAUCCUUUGGGUAGCAGAAGGGUGAACAUGAGGAUCACCCAUGUAGGUGCCAGGGCGUGAGCCC [JL SSNG1 1.81] (Eterna round: R96, puzzle: Same State NG 1)	1130	147	444			
AGGCUCAGAGCAGGAUAUAUGCGAUCACAUGAGGAUCACCCAUGUCUCGAGCUUCGGCUCGAGGCAUAGAAGGGCUCUGAGCCA [SSNG2/4-B1] (Eterna round: R96, puzzle: Same State NG 2)	18.9	28.6	51.8			
GUGGUCAGACAUGAGGAUCACCCAUGUGGAAUAAAUAACGAACAGGAUAUUCAAUAUAGGAUAUAGAAGAAGGGUUGAUUGGUG (Eterna round: R96, puzzle: Same State NG 3)	204	171	187			
GCGACGGCGAAAGGAUAUCAAAAUCAACAGUGUUGAGAAGGUUCUCCGAGGGUCGCACAUGAGGAUCACCCAUGUCGCGAAUCU [Eternabot solution 35] (Eterna round: R96, puzzle: Same State NG 1)		9.02				
UGUUGUAUUACAGGAUAUCUAUUAGUUUUAGUUAGAGAAGGGUAUUCACAUGAGGAUCACCCAUGUAUAUACGAGGAAGUUGUG [JMF's solution 99] (Eterna round: R96, puzzle: Same State NG 1)		34.6				
GGUCCAGCCUGAGCUGGACAAAAGCAUGUACAUGAGGAUCACCCAUGUCAUGUACAAGCUUUUUGCUCGUCUAAAAG [Mat - hsa-mir-208a - 95] (puzzle: Sensor for hsa-mir-208a)				234	19	467
GCUACCAAUGAAGCCAACAUGAGGAUCACCCAUGUAUGUUGGUAGGAUAUCGAUUGCAAAGCGAUCGAGAAGGGCUAAGGUAGC [Mat - Same State NG 3 - JL Mod - D82] (Eterna round: R96, puzzle: Same State NG 3)	51.9	59.6	54.5			
AACCCAAUGGAAGGAUAUGGCACCUUAUUGGUGCCAGAAGGUCCUAACAUGAGGAUCACCCAUGUGGGCCGGUCUUAAGACCGG [Fiskers NG1ss - 8] (Eterna round: R96, puzzle: Same State NG 1)	142	382	456			
GUGGUCUGACAUGAGGAUCACCCAUGUGGAAUAAAUACGGGUUAGGAUAUCUUGAGGAUCACCCAAGAGAAGGGAUGGACCGUU (Eterna round: R96, puzzle: Same State NG 3)	36.3	30.9	47.5			
GGCUAUCGCGUACGAUAGCUUAGGCAUGUACAUGAGGAUCACCCAUGUCAUGUACAGGCUUGUUGCUCGUCUUAUUG [JL-shm-2.37 JL mod] (puzzle: Sensor for hsa-mir-208a)				202	15.8	291
AAACGUCACAUGAGGAUCACCCAUGUAGCCAUAAGAAGCGGACAGGAUAUUGACCUGAACGGAGUCAAGAAGGGUCAGUAUCAG [Eternabot solution 1] (Eterna round: R96, puzzle: Same State NG 3)	14.7	12.9	18.2			
GCUCGUGGUAUUGUCUACAUGAGGAUCACCCAUGUAGGUGCGGAGGAUAUCUACGUGUCUCAUGUAGAGAAGGCCGUCACGAGC [SameState NG3 #98] (Eterna round: R96, puzzle: Same State NG 3)	20.3	36.2	89.4			
UUAACAUGAGGAUCACCCAUGUAUAGGGAGUUAGCAAUUGGACAGGAUAUUGAAGAUGUAGAUAGCAAGAAGGGUCGGUAGUCU [JR_SSNG3_Sub002] (Eterna round: R96, puzzle: Same State NG 3)	36.8	32.9	46.7			
GCGAUAUGAUGUUACAUGAGGAUCACCCAUGUAGCGAUAGCUAAGGAUAUUGGAAAGGGAGGAGACGAGAAGGUAGGAUCACGC [AK SSNG3-V2-23.1] (Eterna round: R96, puzzle: Same State NG 3)	44.9	15.7	36.1			
GUGCUCGUGUGAGGAUAUGCUUCCGUUUCGGCUGCAGAAGGUACUAUUAUACAUGAGGAUCACCCAUGUCCCUUUUCUCCGGUG [salish99_SSNG1_r04_914] (Eterna round: R96, puzzle: Same State NG 1)	18.4	13.5	21.9			
ACAUGAGAGAAAGGAUAUGGUGUACCUACAUGUGACAUGAGGAUCACCCAUGUGGUAAGUAUGACUCAGAAGGUUCAGAUAUGU [Equivalance 73 - Jieux - Same State NG 2] (Eterna round: R96, puzzle: Same State NG 2)	16.9	65.6	126			
GUUACAUGAGGAUCACCCAUGUAUGUGUGGGAGUAAGUGUCUUAGGAUAUCUGUUUUUUAAUUUAAGAGAAGGAAGAUUGUUGU [JMF's solution 33] (Eterna round: R96, puzzle: Same State NG 3)	105	59.6	112			
CAUCUAUACGUAGGAUAUGUAGGAUAUUCCUACAUGAGGAUCACCCAUGUUCGCAUGGAAGAAGGACAGAAGGACGAACUACUU [pwkr ssNG2 2FMN + 1F5.7] (Eterna round: R96, puzzle: Same State NG 2)	320	144	21.5			
GUAAUAAAGGAAGGAUAUGGGUAAACGGGAAUCCCAGAAGGUCCACAUGAGGAUCACCCAUGUGGUCCCGAAACCAAGGGACCG [Cetibiza] (Eterna round: R96, puzzle: Same State NG 1)	53.1	19.3	48.7			
UAAAUAAAGUAAGGAUAUACAUGAGGAUCUCUCGUAGAAGGUACUAUACAUGAGGAUCACCCAUGUGCCGGUCAAUAGACUGGA [Mat - Same State NG 1 - JL mod - D9] (Eterna round: R96, puzzle: Same State NG 1)	589	131	446			
GGAGCCGGCCUAGGAUAUUUCAUAAAAGAACAUGAGGAUCACCCAUGUAGGCCAGAAGGCCUUGGGAAGAAGGAGGUCGGCUCC [Loop Effect - G28] (Eterna round: R96, puzzle: Same State NG 2)	14.4	22.4	31.8			
GUUACAUGAGGAUCACCCAUGUAUGUGUGGGAGUAAGUGUCUUAGGAUAUCUGUAAUUUAAUUUAAGAGAAGGAAGAUUGUUGU [JMF's solution 31] (Eterna round: R96, puzzle: Same State NG 3)	128	94.5	121			
AUUGCUAGCACAGGAUAUCAUGCGAAAAUUGCGUGAGAAGGGUGGACGCUGUCAUUCACGGAAGACAUGAGGAUCACCCAUGUC [SameState NG1 #77] (Eterna round: R96, puzzle: Same State NG 1)	44.6	56.2	88.1			
AUAAAACAUGAGGAUCACCCAUGUCAACAAAGUCGAGGAUAUGGGCAAUUAAAAUAAGAACCAGAAGGCGAAUAAU [salish99_ss1_r3_025] (Eterna round: R96, puzzle: Same State 1)	35.7	214	250			
